This is an account of results in patent publication US20210285024A1 (CENTRE NATIONAL DE LA RECHERCHE SCIENTIFIQUE CNRS, published 2021).

This assay deals with T1, recombinant human Vasohibin-2 (VASH2) (Homo sapiens, UniProt Q86V25 1-355, limits assumed).
T1 construct: Produced in E. coli (pET-28a(+)/pGEX) and purified by IMAC and ion exchange
The assay is described as follows: recombinant complex purified and used as detyrosinase; no direct binding assay described.

T1 sequence (Q86V25 whole entry): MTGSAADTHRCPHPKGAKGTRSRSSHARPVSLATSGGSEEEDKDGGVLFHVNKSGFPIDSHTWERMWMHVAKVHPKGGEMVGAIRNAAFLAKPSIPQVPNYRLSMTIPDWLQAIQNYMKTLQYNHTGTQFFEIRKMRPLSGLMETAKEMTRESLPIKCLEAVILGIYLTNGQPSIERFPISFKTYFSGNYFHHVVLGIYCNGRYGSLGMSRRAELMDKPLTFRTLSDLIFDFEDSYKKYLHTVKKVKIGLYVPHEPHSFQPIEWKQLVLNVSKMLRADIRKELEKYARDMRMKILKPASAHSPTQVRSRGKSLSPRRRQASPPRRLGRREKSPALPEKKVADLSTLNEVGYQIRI

B1: Small vasohibin-binding protein (SVBP) (other)
chain: MDPPARKEKTKVKESVSRVEKAKQKSAQQELKQRQRAEIYALNRVMTELEQQQFDEFCKQMQPPGE
notes: Coexpressed with VASH1 or VASH2
Consider B1, for which the binding result is given as “binds”.
